This passage reports Kd results from article PMC2931317.

The target in this series is T1, DIP1-c (Disconnected Interacting Protein 1, longest isoform) (Drosophila melanogaster, UniProt C6TP62 1-410).
T1 sequence: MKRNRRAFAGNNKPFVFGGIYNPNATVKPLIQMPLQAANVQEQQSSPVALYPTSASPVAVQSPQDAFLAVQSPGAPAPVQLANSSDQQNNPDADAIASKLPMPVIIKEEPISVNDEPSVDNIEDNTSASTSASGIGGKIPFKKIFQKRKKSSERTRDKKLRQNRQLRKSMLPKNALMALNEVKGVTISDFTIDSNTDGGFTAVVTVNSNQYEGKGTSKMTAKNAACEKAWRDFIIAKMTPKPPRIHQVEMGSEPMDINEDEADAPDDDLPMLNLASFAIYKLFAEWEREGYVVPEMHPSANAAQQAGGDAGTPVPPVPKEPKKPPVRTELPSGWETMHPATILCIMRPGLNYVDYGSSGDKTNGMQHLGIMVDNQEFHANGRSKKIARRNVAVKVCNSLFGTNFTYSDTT
Description: EMSA. A general note: In EMSA bound probe runs differently from free probe, usually more slowly.

B1: dsDNA40 (dsDNA)
DNA 1: CCGGGCTGCACATGGTTAATGGCCAGTCCACGCGTAGATC
DNA 2: GATCTACGCGTGGACTGGCCATTAACCATGTGCAGCCCGG
Molecule B1 returned a Kd of 26 ± 8 nM.

A word on the Kd: it is the concentration at which binding is half-saturated. A lower Kd goes with a tighter complex.
